doi:10.1101/2022.11.10.515920 (bioRxiv, 2022)

B1: glucose oxidase expressed in BY-2 lysate (enzyme)
chain: LPHYIRSNGIEASLLTDPKDVSGRTVDYIIAGGGLTGLTTAARLTENPNISVLVIESGSYESDRGPIIEDLNAYGDIFGSSVDHAYETVELATNNQTALIRSGNGLGGSTLVNGGTWTRPHKAQVDSWETVFGNEGWNWDNVAAYSLQAERARAPNAKQIAAGHYFNASCHGVNGTVHAGPRDTGDDYSPIVKALMSAVEDRGVPTKKDFGCGDPHGVSMFPNTLHEDQVRSDAAREWLLPNYQRPNLQVLTGQYVGKVLLSQNGTTPRAVGVEFGTHKGNTHNVYAKHEVLLAAGSAVSPTILEYSGIGMKSILEPLGIDTVVDLPVGLNLQDQTTATVRSRITSAGAGQGQAAWFATFNETFGDYSEKAHELLNTKLEQWAEEAVARGGFHNTTALLIQYENYRDWIVNHNVAYSELFLDTAGVASFDVWDLLPFTRGYVHILDKDPYLHHFAYDPQYFLNELDLLGQAAATQLARNISNSGAMQTYFAGETIPGDNLAYDADLSAWTEYIPYHFRPNYHGVGTCSMMPKEMGGVVDNAARVYGVQGLRVIDGSIPPTQMSSHVMTVFYAMALKISDAILEDYASMQ
B2: glucose oxidase, commercial standard purified from Aspergillus niger (enzyme)
chain: LPHYIRSNGIEASLLTDPKDVSGRTVDYIIAGGGLTGLTTAARLTENPNISVLVIESGSYESDRGPIIEDLNAYGDIFGSSVDHAYETVELATNNQTALIRSGNGLGGSTLVNGGTWTRPHKAQVDSWETVFGNEGWNWDNVAAYSLQAERARAPNAKQIAAGHYFNASCHGVNGTVHAGPRDTGDDYSPIVKALMSAVEDRGVPTKKDFGCGDPHGVSMFPNTLHEDQVRSDAAREWLLPNYQRPNLQVLTGQYVGKVLLSQNGTTPRAVGVEFGTHKGNTHNVYAKHEVLLAAGSAVSPTILEYSGIGMKSILEPLGIDTVVDLPVGLNLQDQTTATVRSRITSAGAGQGQAAWFATFNETFGDYSEKAHELLNTKLEQWAEEAVARGGFHNTTALLIQYENYRDWIVNHNVAYSELFLDTAGVASFDVWDLLPFTRGYVHILDKDPYLHHFAYDPQYFLNELDLLGQAAATQLARNISNSGAMQTYFAGETIPGDNLAYDADLSAWTEYIPYHFRPNYHGVGTCSMMPKEMGGVVDNAARVYGVQGLRVIDGSIPPTQMSSHVMTVFYAMALKISDAILEDYASMQ

Biological target: the molecule itself
Experiment: SEC

| Protein | stoichiometry N |
| --- | --- |
| B1 | 2 |
| B2 | 2 |
